molecular target: Recombinant envelope glycoprotein gp120 from HIV-1 (CM235) (HIV-1 (CM235)); assay: ELISA

Row | Substance | EC50 [pM]
1 | Aglycosylated Avaren-Fc variant (AvFc^Δgly), N200Q (Fc fusion) | 61
2 | Avaren-Fc produced in glycoengineered ΔXylT/ΔFucT N. benthamiana (AvFc^ΔXF) (Fc fusion) | 48
3 | Avaren-Fc produced in wild-type N. benthamiana (AvFc^WT) (Fc fusion) | 51

Source: publication doi:10.1101/2022.05.31.494188
